Results published in CN101022829A (GENENTECH INC, dated 2007).
Where a chain is given by its changes, count along the chain named. One block for each molecule: values may come before it.

Columns and labels:
human CD20 (human) [1] = biological target: T1, human CD20 (human) (UniProt P11836); assay: Scatchard, competition with 125I-2H7.v16 on WIL2-S cells, n=3
T1 sequence (looked up): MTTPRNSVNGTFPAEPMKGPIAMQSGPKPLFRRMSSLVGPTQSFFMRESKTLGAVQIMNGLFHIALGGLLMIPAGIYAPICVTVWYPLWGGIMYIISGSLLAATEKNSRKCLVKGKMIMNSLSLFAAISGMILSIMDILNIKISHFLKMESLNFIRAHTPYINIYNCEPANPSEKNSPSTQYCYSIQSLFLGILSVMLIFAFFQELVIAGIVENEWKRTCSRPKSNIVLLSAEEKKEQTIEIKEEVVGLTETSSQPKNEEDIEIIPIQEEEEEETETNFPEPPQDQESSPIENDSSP

human CD20 (human) [2] = biological target: T1, human CD20 (human); assay: cell-based or functional assay
human CD20 [3] = biological target: T2, human CD20 (human, UniProt P11836 1-297); assay: cell ELISA, WIL2-S; v16 as comparator, normalised to chimera
T2 construct: whole, on cells; also called Bp35
T2 sequence (looked up): T1 sequence (looked up)

human CD20 [4] = biological target: T2, human CD20; assay: Scatchard, competition with 125I-2H7.v16 on WIL2-S cells, n=4

Kd (human CD20 (human) [1]): 0.99 nM
ADCC, EC50(variant)/EC50(2H7.v16) (human CD20 (human) [2]): 5.3
ADCC, EC50(variant)/EC50(RITUXAN) (human CD20 (human) [2]): 1
CDC, EC50(variant)/EC50(RITUXAN) (human CD20 (human) [2]): 1
Molecule: RITUXAN (rituximab) (antibody)

relative binding (ratio to v6.8) (human CD20 [3]): 1.2
B1: 2H7.v138 (antibody, human IgG1, kappa, V domains shown)
VH: EVQLVESGGGLVQPGGSLRLSCAASGYTFTSYNMHWVRQAPGKGLEWVGAIYPGNGATSYNQKFKGRFTISVDKSKNTLYLQMNSLRAEDTAVYYCARVVYYSASYWYFDVWGQGTLVTVSS
VL: DIQMTQSPSSLSASVGDRVTITCRASSSVSYLHWYQQKPGKAPKPLIYAPSNLASGVPSRFSGSGSGTDFTLTISSLQPEDFATYYCQQWAFNPPTFGQGTKVEIKR

Kd (human CD20 [4]): 1.22 nM
B2: 2H7.v73 (antibody, V domains shown)
VH: B1 VH with A57D
VL: B1 VL with A91S
